# Data published in patent US6340783B1, “Rodent models of human amyloidoses” (University of Washington, priority 1992, dated 2002).
# Entries after “also recorded” stand apart in the source; their conditions may differ. Like-named read-outs stand apart in the source and are kept apart here.
# Experiments:
# BAP (1-28) = molecular target: T1, BAP (1-28) (Homo sapiens, UniProt P05067); assay: Solid phase binding assay, Scatchard analysis of 125I-BAP (1-28) binding to high Mr HSPG
# T1 construct: residues 1-28 of BAP or residues 597-624 of BAPP; purchased Bachem Inc., Torrance, Calif; host or cells: synthetic peptide
# T1 sequence (P05067 672-699 limits assumed): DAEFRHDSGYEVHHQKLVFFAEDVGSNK
# Description: Nitrocellulose coated wells were incubated overnight at room temperature with 100 μl of TBS containing 1.5 μg (with 0.28 μg binding to the well) of high Mr HSPG. Wells were blocked overnight at room temperature with 200 μl of 5% non-fat dried milk. After blocking, wells were rinsed 3 times with 200 μl of TBS. Various quantities of ^125I-BAP (1-28) (specific activity=6,683 cpm/pm) diluted in 100 μl of TBS/0.05% Tween 20 was added in triplicate to wells and incubated for 2.5 hours at room temperature on an orbital shaker. At the end of the incubation period, free ^125I-BAP was removed from each well and transferred to scintillation vials for counting. In addition, each well was washed 6 times with 200 μl of TBS/0.05% Tween 20, and the wash was added to each of the same scintillation vials described above, to determine the total “free” 125I-BAP fraction for each well. Bound ^125-BAP was extracted from wells by incubation with 100 μl of 1N NaOH at room temperature for 1 hour, and quantitated by liquid scintillation counting. Recovery of ^125I-BAP as free and bound radioactivity exceeded 90%. […] Bars indicate standard error of the mean.
# ^125I-HSPG (specific activity=1,104 cpm/ug) isolated from EC culture media was used to determine the amount of HSPG which bound to microtiter wells. Polyvinyl microtiter wells were coated with 100 μl of nitrocellulose solution (Schleicher and Schuell) (10 cm^2 of BA85 nitrocellulose in 10 ml of methanol) and allowed to dry at room temperature for 4 hours. Wells were coated overnight at room temperature with unlabeled HSPG to give 0.12 μg or 0.28 μg of bound-HSPG per well, and blocked overnight at room temperature with 200 μl of 5% non-fat dried milk (Carnation Co., Los Angeles, Calif.). Various quantities of 125I-BAP (residues 1-28) (specific activity=6,683 cpm/pm) diluted in 100 μl of TBS/0.05% Tween 20 were added in triplicate to wells and incubated for 2.5 hours at room temperature on an orbital shaker. At the end of the incubation. period, free ^125I-BAP was then removed with 6 washes of TBS/0.05% Tween 20. Bound ^125I-BAP was extracted from wells by incubation with 100 μl of 1N NaOH at room temperature for 1 hour, and “bound” versus “free” radioactivity was quantitated by liquid scintillation counting. Recovery of ^125I-BAP as free and bound radioactivity exceeded 90%. A set of controls using 5% BSA-coated wells was also included in all experiments.
# To quantitate the interaction between the high Mr HSPG and BAP (1-28), 0.12 μg or 0.28 μg of the HSPG (isolated from the culture media of ECs; see FIG. 9B, lane 1) were immobilized on nitrocellulose coated wells and incubated with increasing concentrations of ^125I-BAP.
# BAP (residues 1-28) = molecular target: T2, BAP (residues 1-28) (Homo sapiens, UniProt P05067); assay: Affinity column chromatography of labeled proteoglycans on BAP (1-28) Affi-gel 10 column; format: binding
# T2 construct: residues 1-28 of BAP or residues 597-624 of BAPP; purchased Bachem Inc., Torrance, Calif; host or cells: synthetic peptide
# Description: Approximately 500,000 dpm of ^35S-sulfate labeled PGs isolated from the culture media of ECs were applied to Affi-gel 10 affinity columns containing approximately 0.45 mg of 1) residues 1-28 of BAP, 2) residues 410-429, a region of BAPP present in the extracellular domain, or 3) bovine serum albumin. The labeled PGs were left on the column for 1 hour, after which non-bound radiolabelled PGs were eluted with 25 ml (50 0.5 ml fractions) of TBS+0.1% TX-100 and collected on a fraction collector. Bound PGs were then eluted from the column with 15 mls of 4M MgCl2 in TBS+0.1% TX-100.
# 0.5 mg or 1.0 mg of ligands consisting of 1) BAP (1-28) (Bachem Inc., Torrance, Calif.), 2) a peptide corresponding to residues 410-429 of the BAPP (gift of Dr. Dennis Selkoe, Boston, U.S.A.) or 3) bovine serum albumin (BSA fraction V, Boehringer, Mannheim Biochemical) were dissolved initially in 400 μl of double distilled water to which was added an equal volume of 0.2 M HEPES buffer (pH 7.5) containing 160 mM calcium chloride. The ligand solutions were added to 0.8-1.0 ml of Affi-gel 10 (Biorad, Richmond, Calif.) and coupling was allowed to proceed for 4 hours at 4° C., after which 1/10 volume of IM ethanolamine (pH 8.0) was added and incubation continued for an additional 1-2 hours to block remaining unreacted ester groups. Gel coupled ligand was then transferred to Biorad Econo-columns and washed with TBS in 0.1% Triton-X 100. To assess the amount of bound ligand, soluble (nonbound) protein remaining in the wash buffer was assayed. The affinity columns coupled approximately 90% of ligand initially applied (i.e. 0.45 mg or 0.90 mg).
# ^35S-sulfate labeled PGs isolated from the culture media (360,000 dpm) of ECs and SMCs were applied to Affi-gel 10 columns containing 1) BAP (residues 1-28), 2) BAPP (residues 410-429) or 3) Bovine serum albumin. The labeled PGs were allowed to interact with the affinity gel for 1 hour (preliminary experiments indicated maximum binding efficiency at 1 hour) and non-bound radiolabelled PGs were eluted with 25 ml of TBS+0.1% Triton X-100 (TBS-TX 100). Bound PGs were eluted with either a single-step gradient using 15 mls of 4M MgCl2 in TBS-TX 100 or a linear gradient of 0 to 4M MgCl2 in TBS-TX 100. In some experiments, columns were further eluted with 15 ml of 8M urea in 50 mM Tris-HCl (pH 7.5), with 0.5% Triton X-100 and 3M NaCl. The radioactivity per fraction was determined by scintillation counting. Most experiments were repeated a minimum of three times. Recoveries of applied radioactivity from the affinity columns ranged from 80-95%.
substance,measurement,setting,value
high Mr HSPG: ˜600-800 kDa heparan sulfate proteoglycan isolated from culture media of bovine aortic endothelial cells,Kd,"BAP (1-28); 125I-BAP (1-28), Scatchard analysis, HSPG on nitrocellulose coated wells, read-out: Kd of the high affinity binding site",0.083 nM
same,Kd,"BAP (1-28); 125I-BAP (1-28), Scatchard analysis, HSPG on nitrocellulose coated wells, read-out: Kd of the low affinity binding site",42 nM
same,moles of BAP bound by 1 mole of HSPG,"BAP (1-28); assuming molecular weights of 700,000 and 2,800",~1.8 mol
same,Kd,"BAP (1-28); binding to BAP/β/A4 (1-28), read-out: Kd of the low affinity binding site (unit inferred)",42 nM
same,binding to BAP (1-28) affinity column,BAP (residues 1-28),strong binding; also recorded: bound tightly
same,eluent that removed most bound PGs from BAP column,BAP (residues 1-28); after 0 to 4M MgCl2 gradient and 4M MgCl2 wash,8M urea+3M NaCl
same,binding to BAP (1-28) affinity column,BAP (residues 1-28); listed as 125I-HSPG,high affinity
